Data: PMC2878922 (2011)

Experiments:
CD47 ECD [1] = target: CD47 ECD (Homo sapiens, UniProt Q08722); experiment: flow cytometry saturation binding on CD47-coated beads
CD47 ECD [2] = target: T1, CD47 ECD (Mus musculus, UniProt Q61735); experiment: as above
T1 chain: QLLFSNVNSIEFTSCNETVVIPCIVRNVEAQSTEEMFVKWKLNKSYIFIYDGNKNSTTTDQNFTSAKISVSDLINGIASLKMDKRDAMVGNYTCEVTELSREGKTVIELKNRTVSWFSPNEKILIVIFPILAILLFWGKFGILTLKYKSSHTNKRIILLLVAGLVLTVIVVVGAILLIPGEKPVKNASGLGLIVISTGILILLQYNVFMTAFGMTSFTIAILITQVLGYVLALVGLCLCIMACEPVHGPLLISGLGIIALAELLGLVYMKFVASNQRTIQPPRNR

Chain of CD47 ECD (Homo sapiens, UniProt Q08722) (Q08722 19-323): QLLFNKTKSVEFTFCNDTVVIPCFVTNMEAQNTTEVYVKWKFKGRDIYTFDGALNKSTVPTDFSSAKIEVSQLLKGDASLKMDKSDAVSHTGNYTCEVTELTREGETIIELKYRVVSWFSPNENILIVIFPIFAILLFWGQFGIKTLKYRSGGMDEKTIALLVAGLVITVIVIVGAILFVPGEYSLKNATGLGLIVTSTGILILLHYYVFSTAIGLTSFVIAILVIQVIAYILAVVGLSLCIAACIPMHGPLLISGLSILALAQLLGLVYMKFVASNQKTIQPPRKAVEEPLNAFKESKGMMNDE

Kd (CD47 ECD [1]): 220 nM
Kd (CD47 ECD [2]): 220 nM
B1: SIRPα (variant 129_IgV, GST fusion) ECD (protein)
chain: KELKVTQPEKSVSVAAGDSTVLNCTLTSLLPVGPIRWYRGVGPSRLLIYSFAGEYVPRIRNVSDTTKRNNMDFSIRISNVTPADAGIYYCVKFQKGSSEPDTEIQSGGGTEVYVLAKPSPPEVSGPADRGIPDQKVNFTCKSHGFSPRNITLKWFKDGQELHPLETTVNPSGKNVSYNISSTVRVVLNSMDVNSKVICEVAHITLDRSPLRGIANLSNFIRVSPTVKVTQQSPTSMNQVNLTCRAERFYPEDLQLIWLENGNVSRNDTPKNLTKNTDGTYNYTSLFLVNSSAHREDVVFTCQVKHDQQPAITRNHTVLGFAHSSDQGSMQTFPDNNATHNWN
